Measured values from US20160376343A1 (NATIONAL INSTITUTE FOR BIOTECHNOLOGY IN THE NEGEV, published 2016).

B1: V3 K109R (Fc fusion)
chain: LRLLDHRAPVCSQPGLNCTVKNSTCLDDSWIHPRNLTPSSPKDLQIQLHFAHTQQGDLFPVAHIEWTLQTDASILYLEGAELSVLQLNTNERLCVRFEFLSKLRHHHRRWRFTFSHFVVDPGQEYEVTVHHLPKPIPDGDPNHQSKNFLVPDCEDARMKVTTPCMSSGSLWDPNITVETLEAHQLRVSFTLWNESTHYQILLTSFPHMENHSCFEHMHHIPAPRPEEFHQRSNVTLTLRNLKWCCRHQVQIQPFFSSCLNDCLRHSVTVSCPEMPDTPEPIPDYMPLW
notes: Expressed in mammalian cells; not shown: human IgG1 engineered Fc from the mammalian expression vector
B2: V10 K109R (Fc fusion)
chain: LRLLDHRAPVCSQPGLNCTVKNSTCLDDSWIHPRNLTPSSPKDLQIQLHFAHTQQGDLVPVAHIEWTLQTDASILYLEGAELSVLQLNTNERLCVRFEFLSKLRHHHRRWRFTFSHFVVDPGQEYEVTVHHLPKPIPDGDPNHQSKNFLVPDCEHPRMKVTTPCMSSGSLWDPNITVETLEAHQLRVSFTLWNESTHYQILLTSFPHMENHSCFEHMHHIPAPRPEEFHQRSNVTLTLRNLKGCCRHQVQIQPFFSSCLNDCLRHSATVSCPEMPDTPEPIPDYMPLW
notes: as for B1
B3: hIL17RA-ECD variant V10 (Fc fusion)
chain: LRLLDHRAPVCSQPGLNCTVKNSTCLDDSWIHPRNLTPSSPKDLQIQLHFAHTQQGDLVPVAHIEWTLQTDASILYLEGAELSVLQLNTNERLCVRFEFLSKLRHHHKRWRFTFSHFVVDPGQEYEVTVHHLPKPIPDGDPNHQSKNFLVPDCEHPRMKVTTPCMSSGSLWDPNITVETLEAHQLRVSFTLWNESTHYQILLTSFPHMENHSCFEHMHHIPAPRPEEFHQRSNVTLTLRNLKGCCRHQVQIQPFFSSCLNDCLRHSATVSCPEMPDTPEPIPDYMPLW
notes: also called V10M; not shown: human IgG1 engineered Fc (reduced ADCC/CDC) from the expression vector
B4: V3 P10L (Fc fusion)
chain: LRLLDHRALVCSQPGLNCTVKNSTCLDDSWIHPRNLTPSSPKDLQIQLHFAHTQQGDLFPVAHIEWTLQTDASILYLEGAELSVLQLNTNERLCVRFEFLSKLRHHHKRWRFTFSHFVVDPGQEYEVTVHHLPKPIPDGDPNHQSKNFLVPDCEDARMKVTTPCMSSGSLWDPNITVETLEAHQLRVSFTLWNESTHYQILLTSFPHMENHSCFEHMHHIPAPRPEEFHQRSNVTLTLRNLKWCCRHQVQIQPFFSSCLNDCLRHSVTVSCPEMPDTPEPIPDYMPLW
notes: as for B1
B5: V3 W244G (Fc fusion)
chain: LRLLDHRAPVCSQPGLNCTVKNSTCLDDSWIHPRNLTPSSPKDLQIQLHFAHTQQGDLFPVAHIEWTLQTDASILYLEGAELSVLQLNTNERLCVRFEFLSKLRHHHKRWRFTFSHFVVDPGQEYEVTVHHLPKPIPDGDPNHQSKNFLVPDCEDARMKVTTPCMSSGSLWDPNITVETLEAHQLRVSFTLWNESTHYQILLTSFPHMENHSCFEHMHHIPAPRPEEFHQRSNVTLTLRNLKGCCRHQVQIQPFFSSCLNDCLRHSVTVSCPEMPDTPEPIPDYMPLW
notes: as for B1
B6: hIL17RA-ECD variant V3 (Fc fusion)
chain: LRLLDHRAPVCSQPGLNCTVKNSTCLDDSWIHPRNLTPSSPKDLQIQLHFAHTQQGDLFPVAHIEWTLQTDASILYLEGAELSVLQLNTNERLCVRFEFLSKLRHHHKRWRFTFSHFVVDPGQEYEVTVHHLPKPIPDGDPNHQSKNFLVPDCEDARMKVTTPCMSSGSLWDPNITVETLEAHQLRVSFTLWNESTHYQILLTSFPHMENHSCFEHMHHIPAPRPEEFHQRSNVTLTLRNLKWCCRHQVQIQPFFSSCLNDCLRHSVTVSCPEMPDTPEPIPDYMPLW
notes: also called hIL-17R-V3; hIL17R-V3; not shown: human IgG1 engineered Fc (reduced ADCC/CDC) from the expression vector
B7: V10 V60F (Fc fusion)
chain: LRLLDHRAPVCSQPGLNCTVKNSTCLDDSWIHPRNLTPSSPKDLQIQLHFAHTQQGDLFPVAHIEWTLQTDASILYLEGAELSVLQLNTNERLCVRFEFLSKLRHHHKRWRFTFSHFVVDPGQEYEVTVHHLPKPIPDGDPNHQSKNFLVPDCEHPRMKVTTPCMSSGSLWDPNITVETLEAHQLRVSFTLWNESTHYQILLTSFPHMENHSCFEHMHHIPAPRPEEFHQRSNVTLTLRNLKGCCRHQVQIQPFFSSCLNDCLRHSATVSCPEMPDTPEPIPDYMPLW
notes: as for B1
B8: V3M V268A (Fc fusion)
chain: LRLLDHRAPVCSQPGLNCTVKNSTCLDDSWIHPRNLTPSSPKDLQIQLHFAHTQQGDLFPVAHIEWTLQTDASILYLEGAELSVLQLNTNERLCVRFEFLSKLRHHHKRWRFTFSHFVVDPGQEYEVTVHHLPKPIPDGDPNHQSKNFLVPDCEDARMKVTTPCMSSGSLWDPNITVETLEAHQLRVSFTLWNESTHYQILLTSFPHMENHSCFEHMHHIPAPRPEEFHQRSNVTLTLRNLKWCCRHQVQIQPFFSSCLNDCLRHSATVSCPEMPDTPEPIPDYMPLW
notes: Expressed in mammalian cells; also called V3 V268A; not shown: human IgG1 engineered Fc from the mammalian expression vector
B9: V6 expressed in E. coli (Trx-6xHis-tagged) (receptor)
chain: LRLLDHRALVCSQEGLNCTVKNSTCLDDSWIHPRNLTPSSPKDLQIQLHFAHTQQGDLLPVAHIEWTLQTDASILYLEGAELSVLQLNTNERLCVRFEFLSKLRHHHKRWRFTFSHFVVDPGQEYEVTVHHLPKPIPDGDPNHQSKNFLVPDCEHARMKVTTPCMSSGSLWDPNITVETLEAHQLRVSFTLWNESTHYQILLTSFPHMENHSCFEHMHHIPAPRPEEFHQRSNVTLTLRNLKGCCRHQVQIQPFFSSCLNDCLRHSATVSCPEMPDTPEPIPDYMPLW
notes: Tested as cleared E. coli lysate; not shown: N-terminal thioredoxin (Trx)-6xHistidine tag of pET32
B10: V9 expressed in E. coli (Trx-6xHis-tagged) (receptor)
chain: LRLLDHRAPVCSQEGLNCTVKNSTCLDDSWIHPRNLTPSSPKNLQIQLHFAHTQQGDLLPVAHIEWTLQTDASILYLEGAELSVLQLNTNERLCVKFEFLSKLRHHHKRWRFTFSHFVVDPDQEYEVTVHHLPKPIPDGDPNHQSKNFLVPDCEHARMKVTTPCMSSGSLWDPNITVETLEAHQLRVSFTLWNESTHYQILLTSFPHMENHSCFEHMHHIPAPRPEEFHQRSNVTLTLRNLKGCCRHQVQIQPFFSSCLNDCLRHSATVSCPEMPDTPEPIPDYMPLW
notes: as for B9

Each binder was assayed against T1, hIL-17A (human, UniProt Q16552 24-155) (assay: ELISA on captured hIL-17A).
T1 construct: Bought protein
T1 sequence (Q16552 24-155 limits assumed): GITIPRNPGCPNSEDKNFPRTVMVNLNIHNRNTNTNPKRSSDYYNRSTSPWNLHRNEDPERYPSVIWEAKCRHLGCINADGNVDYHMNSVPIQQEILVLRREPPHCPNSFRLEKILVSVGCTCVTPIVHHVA
Procedure: (§1) ELISA plates (Griener Microlon 96W) were incubated with 100 μl of 0.5 μg/ml goat α-hIL-17A antibodies (R&D Systems) for 1 hour, washed with PBS supplemented with 0.05% Tween-80 (PBST) and 100 μl of 0.35 μg/ml hIL-17A (R&D Systems or ProSpec Tany TechnoGene Ltd.) were added to the plate for an additional 1 hour. The plates were then washed with PBST and blocked by incubation with 100 μl of PBS supplemented with 3% skim milk for 1 hour. Following blocking, the plates were washed and incubated with 100 μl of the cleared lysate, cell media or purified protein generated (described above) at appropriate dilutions and shaken for 1 hour. hIL-17RA (R&D Systems) was applied at a concentration of 6.25 μg/ml as a positive control, and PBS supplemented with 1% BSA as a negative control. Plates were then washed with PBST, incubated with 100 μl of 0.05 μg/ml goat α-hIL-17RA antibodies (R&D Systems) followed by a secondary peroxidase-conjugated streptavidin (Jackson, 1:10000 dilution). Finally, 100 μl of the horseradish peroxidase (HRP) chromogenic 3,3′,5,5′-tetramethylbenzidine (TMB) substrate solution (Dako) were added. The reaction was stopped by the addition of 1 M sulfuric acid and recorded at 450 nm using a Tecan Infinite M200 plate reader.
In the case of B1, the “IL-17A binding relative to the WT” value is reported as 45%.
In the case of B2, the “IL-17A binding relative to the WT” value is reported as 80%.
In the case of B3, the “IL-17A binding relative to the WT” value is reported as 100%.
In the case of B4, the “IL-17A binding relative to the WT” value is reported as 85%.
In the case of B5, the “IL-17A binding relative to the WT” value is reported as 65%.
With B6 the “IL-17A binding relative to the WT” value was 100%.
B7 was tested, and the “IL-17A binding relative to the WT” value was 10%.
For B8, the “IL-17A binding relative to the WT” value was 80%.

The binders below were run against T1, hIL-17A (assay: SPR (ProteOn XPR36), receptor immobilised, hIL-17A as analyte).
Procedure: The affinity of hIL-17A binding to hIL17RA-ECD variants was determined by SPR measurements on ProteOn XPR36 (Bio-Rad) instrument. All samples were in HBST buffer (10 mM HEPES with 0.15 M NaCl, 3.4 mM EDTA and 0.005% Tween-20, pH 7.2). A GLC Chip was air initialized and activated with EDC/S-NHS and […] from each of the hIL17RA-ECD variants were diluted in Acetate buffer pH 5.5 and immobilized onto the chip. The measured binding levels for WT hIL17RA-ECD, V3 and V10 were ˜5300RU, 6700RU and 7400RU, respectively. Following blockage of the unbound sites on the chip with Ethanolamine, the chip was flushed with HBST buffer and rotated. The hIL-17A was run at 25 μl/min. for 300 sec at various concentrations (50, 25, 12.5, 6.25 and 3.125 nM) followed by a 10-min. dissociation step. Binding parameters were determined using Langmuir single binding site model using the Bio-Rad's proteOn Manager Software V2.1.2.05.
For B3, the “Fold increase in affinity (against WT hIL17RA-ECD)” value was 4.2 fold, the Kd was 0.624 nM and the koff was 0.000115 s⁻¹. It also gave a kon of 184000 M⁻¹ s⁻¹.
B6 was tested, and the “Fold increase in affinity (against WT hIL17RA-ECD)” value was 6 fold, the Kd was 0.443 nM and the koff was 7.51e-05 s⁻¹. The kon was 170000 M⁻¹ s⁻¹.

What follows are binders tested against T1, hIL-17A (assay: ELISA of cleared E. coli lysate on plate-captured hIL-17A, detected with biotinylated anti-hIL-17RA and streptavidin-HRP, OD 450 nm; concentration not given).
Procedure: as §1
B9: binds.
B10: binds.
